Holding throughout (assay): radioligand inhibition, purified HLA-DR
Conditions in all cases: remark: other sources report otherwise

For one assay, the target named is T1, HLA-DR DRB1*0405 (human).
T1 chain 1: not shown
T1 chain 2: not shown

For another assay, the target named is T2, HLA-DR DRB1*0701 (human).
T2 chain 1: not shown
T2 chain 2: not shown

The next assay deals with T3, HLA-DR DRB1*1101 (human).
T3 chain 1: not shown
T3 chain 2: not shown

The next assay addresses T4, HLA-DR DRB1*0101 (human).
T4 chain 1: not shown
T4 chain 2: not shown

The next assay deals with T5, HLA-DR DRB4*0101 (human).
T5 chain 1: not shown
T5 chain 2: not shown

Another assay has as its target T6, HLA-DR DRB1*1302 (human).
T6 chain 1: not shown
T6 chain 2: not shown

A further assay has as its target T7, HLA-DR DRB1*0401 (human).
T7 chain 1: not shown
T7 chain 2: not shown

The next assay addresses T8, HLA-DR DRB1*0404 (human).
T8 chain 1: not shown
T8 chain 2: not shown

In another assay the target is T9, HLA-DR DRB5*0101 (human).
T9 chain 1: not shown
T9 chain 2: not shown

The IC50 is the concentration that gives 50% inhibition. A higher IC50 goes with a need for much substance.

For AKGLQSLPTHDPSPL [Peptide 9019.0098], the IC50 was determined as 3860 nM with HLA-DR DRB1*0405 (human); 4460 nM with HLA-DR DRB1*0701 (human); 6810 nM in the assay with HLA-DR DRB1*1101 (human); 149 nM with HLA-DR DRB1*0101 (human); 572 nM with HLA-DR DRB4*0101 (human); 3990 nM in the assay with HLA-DR DRB1*1302 (human).

For DNSIRPEELLQMELL [Cyclin D1.129], the half-maximal inhibitory concentration (IC50) turned out to be 16500 nM in the assay with HLA-DR DRB1*0405 (human); 6650 nM with HLA-DR DRB1*0701 (human); 4550 nM in the assay with HLA-DR DRB1*0101 (human); 4680 nM with HLA-DR DRB1*0401 (human); 87 nM with HLA-DR DRB4*0101 (human); 939 nM with HLA-DR DRB1*1302 (human). In the assay with HLA-DR DRB1*0404 (human), this molecule displayed a half-inhibitory concentration (IC50) of 2800 nM.

As for VCGIQNSVSANRSDP [CEA.570 peptide 9012.0135], the half-inhibitory concentration (IC50) in the assay with HLA-DR DRB1*0405 (human) is 1550 nM; in the assay with HLA-DR DRB1*0101 (human) it was 44 nM; in the assay with HLA-DR DRB1*1302 (human), 921 nM; in the assay with HLA-DR DRB5*0101 (human), 36 nM; in the assay with HLA-DR DRB1*0404 (human), 29 nM.

Take EPKKLRPPPARTPCQ [Peptide 9019.0188]: in the assay with HLA-DR DRB1*0401 (human), the IC50 came out at 806 nM.

For the molecule GVTVWELMTFGAKPY [Peptide 9019.0090], the IC50 with HLA-DR DRB1*0405 (human) worked out at 2110 nM; in the assay with HLA-DR DRB1*0101 (human), 40 nM; in the assay with HLA-DR DRB1*1302 (human) it was 8860 nM; in the assay with HLA-DR DRB1*0404 (human), 4.1 nM.

Regarding DANLLNDRVLRAMLK [Cyclin D1.19 peptide 9019.0146], the IC50 with HLA-DR DRB1*0101 (human) was 1460 nM; with HLA-DR DRB1*1302 (human), 286 nM.

NDRVLRAMLKAEETC [Cyclin D1.24 peptide 9019.0147] displayed an IC50 with HLA-DR DRB1*0401 (human) of 1960 nM.

For the molecule GCQVVQGNLELTYLP [Her/neu.52], the results for the IC50 with HLA-DR DRB1*0701 (human), with HLA-DR DRB1*0101 (human) and in the assay with HLA-DR DRB1*0401 (human) were 1970 nM, 2600 nM and 2740 nM, respectively.

As to ICELHCPALVTYNTD [Her2/neu.263], the 50% inhibitory concentration (IC50) in the assay with HLA-DR DRB1*0401 (human) came out at 754 nM; with HLA-DR DRB4*0101 (human), 441 nM; with HLA-DR DRB1*1302 (human), 3220 nM; in the assay with HLA-DR DRB5*0101 (human), 2810 nM.

For SPGLSAGATVGIMIG [CEA.680 peptide 9019.0144], the 50% inhibitory concentration (IC50) in the assay with HLA-DR DRB1*0701 (human) was determined as 92 nM; with HLA-DR DRB1*0101 (human), 3510 nM; with HLA-DR DRB1*0401 (human), 4190 nM; with HLA-DR DRB4*0101 (human), 2590 nM; with HLA-DR DRB1*1302 (human), 80 nM.

Regarding PERLAACGPPPVAPP [Peptide 9019.0179], the IC50 with HLA-DR DRB1*0101 (human) is 28 nM; with HLA-DR DRB1*0401 (human), 5540 nM.

For MRKIVATWMLEVCEE [Cyclin D1.56], the IC50 was found to be 249 nM in the assay with HLA-DR DRB1*0701 (human); 764 nM in the assay with HLA-DR DRB1*0101 (human); 7950 nM in the assay with HLA-DR DRB1*0401 (human); 281 nM with HLA-DR DRB4*0101 (human); 356 nM with HLA-DR DRB1*1302 (human); 17000 nM with HLA-DR DRB5*0101 (human).

For RHLYQGCQVVQGNLE [Her/neu.47], the IC50 with HLA-DR DRB1*0701 (human) was determined as 4940 nM; in the assay with HLA-DR DRB1*0401 (human), 422 nM; with HLA-DR DRB1*1302 (human) it was 5040 nM.

Take INGIPQQHTQVLFIA [CEA.629 peptide 9019.0139]: the IC50 was 942 nM with HLA-DR DRB1*0405 (human); 31 nM with HLA-DR DRB1*0701 (human); 682 nM with HLA-DR DRB1*0101 (human); 181 nM with HLA-DR DRB1*0401 (human); 2700 nM with HLA-DR DRB4*0101 (human).

Turning to GARMPCAELVREPGC [Peptide 9019.0181], the values for the IC50 with HLA-DR DRB1*0101 (human), with HLA-DR DRB4*0101 (human) and in the assay with HLA-DR DRB1*0404 (human) were 164 nM, 4700 nM and 13100 nM, respectively.

Consider ICTIDVYMIMVKCWM [Peptide 1622.04], for which the IC50 was determined as 955 nM with HLA-DR DRB1*0405 (human) and 717 nM with HLA-DR DRB1*0401 (human).

Regarding FRELVSEFSRMARDP [Peptide 9019.0096], the half-maximal inhibitory concentration (IC50) in the assay with HLA-DR DRB1*0701 (human) stood at 5060 nM; in the assay with HLA-DR DRB1*1101 (human), 381 nM; with HLA-DR DRB1*0401 (human), 22 nM; with HLA-DR DRB5*0101 (human), 380 nM; with HLA-DR DRB1*0404 (human) it was 51 nM.

With GYVIGTQQATPGPAY [CEA.81 peptide 9019.0110], the IC50 is 1700 nM with HLA-DR DRB1*0701 (human); 21 nM with HLA-DR DRB1*0101 (human); 31 nM with HLA-DR DRB1*0401 (human); 63 nM in the assay with HLA-DR DRB4*0101 (human); 43 nM with HLA-DR DRB1*1302 (human); 10200 nM in the assay with HLA-DR DRB5*0101 (human). For the same molecule, the IC50 with HLA-DR DRB1*0404 (human) was 34 nM.

Consider ERGPLEHLYSLHIPN [Peptide 9019.0190], for which the 50% inhibitory concentration (IC50) was 110 nM with HLA-DR DRB1*0405 (human); 18 nM with HLA-DR DRB1*0701 (human); 7.7 nM in the assay with HLA-DR DRB1*0101 (human); 4000 nM with HLA-DR DRB5*0101 (human); 29 nM with HLA-DR DRB1*0404 (human).

Consider TMNMLGGGGSAGRKP [Peptide 9019.0184], for which the IC50 turned out to be 6180 nM with HLA-DR DRB1*0701 (human), 1020 nM with HLA-DR DRB1*0101 (human), 791 nM in the assay with HLA-DR DRB1*0401 (human) and 5690 nM with HLA-DR DRB1*1302 (human).

Regarding QYSWRINGIPQQHTQ [CEA.624 peptide 9019.0138], the IC50 in the assay with HLA-DR DRB1*0405 (human) amounted to 311 nM; in the assay with HLA-DR DRB1*1101 (human), 151 nM; with HLA-DR DRB1*0101 (human), 472 nM; with HLA-DR DRB1*0401 (human), 43 nM; with HLA-DR DRB4*0101 (human), 2290 nM.

VAAVQGLNLRSPNNF [Cyclin D1.209] had an IC50 with HLA-DR DRB1*0101 (human) of 44 nM.

In the case of TVGIMIGVLVGVALI [CEA.688 peptide 9019.05], the concentration for half-maximal inhibition (IC50) worked out at 4450 nM in the assay with HLA-DR DRB1*0701 (human); 384 nM with HLA-DR DRB1*0101 (human); 12100 nM with HLA-DR DRB4*0101 (human); 5640 nM with HLA-DR DRB1*1302 (human); 384 nM with HLA-DR DRB5*0101 (human).

As to AEVLFRCPPCTPERL [Peptide 9019.0178], the 50% inhibitory concentration (IC50) worked out at 16000 nM with HLA-DR DRB1*0701 (human), 1280 nM with HLA-DR DRB1*0101 (human) and 5770 nM in the assay with HLA-DR DRB1*1302 (human).

For the molecule PEYVNQPDVRPQPPS [Peptide 9019.0100], the 50% inhibitory concentration (IC50) in the assay with HLA-DR DRB1*0101 (human) was 6160 nM.

For the molecule KELAVFREKVTEQHR [Peptide 9019.0186], the IC50 worked out at 2040 nM with HLA-DR DRB1*0101 (human) and 26 nM with HLA-DR DRB1*0404 (human).

Regarding SSYLSGANLNLSCHS [CEA.603 peptide 9012.0137], the half-maximal inhibitory concentration (IC50) was 7820 nM with HLA-DR DRB1*0405 (human); 40 nM in the assay with HLA-DR DRB1*0101 (human); 580 nM with HLA-DR DRB1*0401 (human); 42 nM with HLA-DR DRB4*0101 (human); 37 nM in the assay with HLA-DR DRB1*1302 (human); 14100 nM with HLA-DR DRB5*0101 (human).

In the case of GPAYSGREIIYPNAS [CEA.92 peptide 9019.0111], the 50% inhibitory concentration (IC50) came to 5260 nM with HLA-DR DRB1*0701 (human), 9440 nM in the assay with HLA-DR DRB1*0101 (human), 13000 nM with HLA-DR DRB1*0401 (human) and 154 nM in the assay with HLA-DR DRB1*1302 (human).

On to FYTLHVIKSDLVNEE [CEA.119 peptide 9019.0114], for which the half-maximal inhibitory concentration (IC50) was 41 nM with HLA-DR DRB1*0405 (human); 56 nM in the assay with HLA-DR DRB1*0701 (human); 22 nM with HLA-DR DRB4*0101 (human); 4500 nM with HLA-DR DRB5*0101 (human); 169 nM in the assay with HLA-DR DRB1*0404 (human).

In the case of APTISPLNTSYRSGE [CEA.239 peptide 9919.0121], the IC50 with HLA-DR DRB1*0405 (human) came out at 5990 nM; with HLA-DR DRB1*0701 (human) it was 10600 nM; in the assay with HLA-DR DRB1*0101 (human) it was 2430 nM; with HLA-DR DRB1*0401 (human), 295 nM; in the assay with HLA-DR DRB1*1302 (human), 125 nM; in the assay with HLA-DR DRB1*0404 (human), 40 nM.

As to TTPVTGASPGGLREL [Her2/neu.126], the IC50 was 13200 nM in the assay with HLA-DR DRB1*0405 (human); 992 nM with HLA-DR DRB1*0101 (human); 6060 nM in the assay with HLA-DR DRB1*1302 (human); 3000 nM in the assay with HLA-DR DRB5*0101 (human); 675 nM with HLA-DR DRB1*0404 (human).

For SDSVILNVLYGPDAP [CEA.123 peptide 9019.0119 (position 226)], the IC50 was found to be 5240 nM in the assay with HLA-DR DRB1*0701 (human); 9210 nM in the assay with HLA-DR DRB1*1101 (human); 255 nM with HLA-DR DRB1*0401 (human); 612 nM in the assay with HLA-DR DRB4*0101 (human); 83 nM with HLA-DR DRB1*1302 (human).

On to IEALLESSLRQAQQN [Cyclin D1.251], for which the half-maximal inhibitory concentration (IC50) with HLA-DR DRB1*0101 (human) stood at 2610 nM; with HLA-DR DRB1*0401 (human) it was 18 nM.

As to EGPLPAARPAGATLE [Peptide 9019.0101], the figures for the IC50 in the assay with HLA-DR DRB1*0701 (human), with HLA-DR DRB1*0101 (human) and in the assay with HLA-DR DRB1*1302 (human) were 7460 nM, 17300 nM and 10200 nM, respectively.

With LAALCRWGLLLALLP [Her/neu.3], the concentration for half-maximal inhibition (IC50) in the assay with HLA-DR DRB1*0701 (human) is 8000 nM; with HLA-DR DRB1*0101 (human) it was 2040 nM; with HLA-DR DRB1*0401 (human), 5390 nM; with HLA-DR DRB1*1302 (human) it was 704 nM.

For NPQLCYQDTILWKDI [Her2/neu.158], the IC50 worked out at 3650 nM with HLA-DR DRB1*0101 (human) and 5070 nM with HLA-DR DRB1*1302 (human).

These data come from patent US20100310640A1.
